This note sets out measurements from publication PMC9481740 (The Journal of Cell Biology, 2022).

Where “and” joins values, the source holds several entries; their conditions need not be identical. Equal entries are not always repeated.

For data set [1], the target named is ^mChSpindly^Y26BPA (human) (UniProt Q96EA4). In words: mass photometry; Refeyn TwoMP; sample diluted to a final 10 nM in Spindly buffer (50 mM Hepes pH 8.0, 250 mM NaCl, 2 mM TCEP); crosslinked samples measured after dilution beside untreated controls.
Data set [2] concerns the molecule itself. The description is as above.
For data set [3], the target named is T1, Spindly^250–605 (human, UniProt Q96EA4 250-605).
T1 construct: also called CC2 and CC3; source: TnAO38 insect cells (baculovirus), purified (HisTrap, Resource Q, Superdex 200)
T1 sequence (looked up): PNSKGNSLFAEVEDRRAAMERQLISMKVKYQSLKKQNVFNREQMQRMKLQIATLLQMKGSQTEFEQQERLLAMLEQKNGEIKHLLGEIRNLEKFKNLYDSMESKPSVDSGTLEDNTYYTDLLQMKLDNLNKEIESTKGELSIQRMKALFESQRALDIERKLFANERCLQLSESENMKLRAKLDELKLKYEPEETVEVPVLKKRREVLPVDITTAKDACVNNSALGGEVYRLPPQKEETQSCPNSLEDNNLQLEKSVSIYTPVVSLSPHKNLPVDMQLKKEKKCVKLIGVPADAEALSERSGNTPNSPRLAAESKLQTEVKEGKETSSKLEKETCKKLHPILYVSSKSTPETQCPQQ
The data set is described as follows: SEC; Spindly N-terminal and C-terminal fragments mixed, 10 µM each; 4°C, Spindly buffer; fractions on SDS-PAGE. The following applies: both partners purified.

Data set [4] deals with T2, mCherry-tagged full-length Spindly (^mChSpindly^FL) (human), Q96EA4.
T2 chain: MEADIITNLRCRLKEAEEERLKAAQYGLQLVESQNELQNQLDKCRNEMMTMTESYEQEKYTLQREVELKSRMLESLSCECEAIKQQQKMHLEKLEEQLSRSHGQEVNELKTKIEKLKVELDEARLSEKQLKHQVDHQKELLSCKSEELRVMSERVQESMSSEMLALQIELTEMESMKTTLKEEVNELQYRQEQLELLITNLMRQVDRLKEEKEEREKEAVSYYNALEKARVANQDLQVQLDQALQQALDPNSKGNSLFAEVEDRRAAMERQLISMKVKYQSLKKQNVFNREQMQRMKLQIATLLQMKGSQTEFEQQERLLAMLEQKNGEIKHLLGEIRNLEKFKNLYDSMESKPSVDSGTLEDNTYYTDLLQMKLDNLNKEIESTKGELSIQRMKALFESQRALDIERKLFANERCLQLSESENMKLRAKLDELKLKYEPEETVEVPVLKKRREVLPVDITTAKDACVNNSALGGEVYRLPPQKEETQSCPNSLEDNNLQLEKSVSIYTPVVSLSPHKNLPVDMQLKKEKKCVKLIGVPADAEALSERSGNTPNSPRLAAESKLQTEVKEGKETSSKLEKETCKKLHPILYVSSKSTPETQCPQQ
In words: mass photometry; Refeyn TwoMP; sample diluted to a final 10 nM in Spindly buffer (50 mM Hepes pH 8.0, 250 mM NaCl, 2 mM TCEP); crosslinked samples measured after dilution beside untreated controls. The settings on record: remark: other sources report otherwise.

Turning to “^mChSpindly^Y26BPA (from UniProt Q96EA4 1-605) (natural protein)”, the stoichiometry N in data set [1] amounted to 2.

B1: ^mChSpindly^∆276–306 (natural protein, human, UniProt Q96EA4 1-605, looked up)
chain: MEADIITNLRCRLKEAEEERLKAAQYGLQLVESQNELQNQLDKCRNEMMTMTESYEQEKYTLQREVELKSRMLESLSCECEAIKQQQKMHLEKLEEQLSRSHGQEVNELKTKIEKLKVELDEARLSEKQLKHQVDHQKELLSCKSEELRVMSERVQESMSSEMLALQIELTEMESMKTTLKEEVNELQYRQEQLELLITNLMRQVDRLKEEKEEREKEAVSYYNALEKARVANQDLQVQLDQALQQALDPNSKGNSLFAEVEDRRAAMERQLISMKGSQTEFEQQERLLAMLEQKNGEIKHLLGEIRNLEKFKNLYDSMESKPSVDSGTLEDNTYYTDLLQMKLDNLNKEIESTKGELSIQRMKALFESQRALDIERKLFANERCLQLSESENMKLRAKLDELKLKYEPEETVEVPVLKKRREVLPVDITTAKDACVNNSALGGEVYRLPPQKEETQSCPNSLEDNNLQLEKSVSIYTPVVSLSPHKNLPVDMQLKKEKKCVKLIGVPADAEALSERSGNTPNSPRLAAESKLQTEVKEGKETSSKLEKETCKKLHPILYVSSKSTPETQCPQQ
notes: predominantly dimeric, with a tendency to form tetramers; source: E. coli BL21 CodonPlus, purified (HisTrap, Resource Q, Superdex 200); not shown: mCherry, N-terminal, kept
As to B1, in data set [2], the “stoichiometry N” value is 2 and 4.

B2: Spindly^1–250 (domain or fragment, human, UniProt Q96EA4 1-250, looked up)
chain: MEADIITNLRCRLKEAEEERLKAAQYGLQLVESQNELQNQLDKCRNEMMTMTESYEQEKYTLQREVELKSRMLESLSCECEAIKQQQKMHLEKLEEQLSRSHGQEVNELKTKIEKLKVELDEARLSEKQLKHQVDHQKELLSCKSEELRVMSERVQESMSSEMLALQIELTEMESMKTTLKEEVNELQYRQEQLELLITNLMRQVDRLKEEKEEREKEAVSYYNALEKARVANQDLQVQLDQALQQALDP
notes: also called CC1; source: TnAO38 insect cells (baculovirus), purified (HisTrap, Resource Q, Superdex 200)
Consider B2, for which, in data set [3], the binding result is “binds”.

B3: mCherry-tagged full-length Spindly (^mChSpindly^FL), Q96EA4 1-605 (natural protein)
chain: MEADIITNLRCRLKEAEEERLKAAQYGLQLVESQNELQNQLDKCRNEMMTMTESYEQEKYTLQREVELKSRMLESLSCECEAIKQQQKMHLEKLEEQLSRSHGQEVNELKTKIEKLKVELDEARLSEKQLKHQVDHQKELLSCKSEELRVMSERVQESMSSEMLALQIELTEMESMKTTLKEEVNELQYRQEQLELLITNLMRQVDRLKEEKEEREKEAVSYYNALEKARVANQDLQVQLDQALQQALDPNSKGNSLFAEVEDRRAAMERQLISMKVKYQSLKKQNVFNREQMQRMKLQIATLLQMKGSQTEFEQQERLLAMLEQKNGEIKHLLGEIRNLEKFKNLYDSMESKPSVDSGTLEDNTYYTDLLQMKLDNLNKEIESTKGELSIQRMKALFESQRALDIERKLFANERCLQLSESENMKLRAKLDELKLKYEPEETVEVPVLKKRREVLPVDITTAKDACVNNSALGGEVYRLPPQKEETQSCPNSLEDNNLQLEKSVSIYTPVVSLSPHKNLPVDMQLKKEKKCVKLIGVPADAEALSERSGNTPNSPRLAAESKLQTEVKEGKETSSKLEKETCKKLHPILYVSSKSTPETQCPQQ
In turn, B3 showed a stoichiometry N in data set [4] of 2.

B4: ^mChSpindly^CC2* (R295E-K297E) (natural protein, human, UniProt Q96EA4 1-605, looked up)
chain: MEADIITNLRCRLKEAEEERLKAAQYGLQLVESQNELQNQLDKCRNEMMTMTESYEQEKYTLQREVELKSRMLESLSCECEAIKQQQKMHLEKLEEQLSRSHGQEVNELKTKIEKLKVELDEARLSEKQLKHQVDHQKELLSCKSEELRVMSERVQESMSSEMLALQIELTEMESMKTTLKEEVNELQYRQEQLELLITNLMRQVDRLKEEKEEREKEAVSYYNALEKARVANQDLQVQLDQALQQALDPNSKGNSLFAEVEDRRAAMERQLISMKVKYQSLKKQNVFNREQMQEMELQIATLLQMKGSQTEFEQQERLLAMLEQKNGEIKHLLGEIRNLEKFKNLYDSMESKPSVDSGTLEDNTYYTDLLQMKLDNLNKEIESTKGELSIQRMKALFESQRALDIERKLFANERCLQLSESENMKLRAKLDELKLKYEPEETVEVPVLKKRREVLPVDITTAKDACVNNSALGGEVYRLPPQKEETQSCPNSLEDNNLQLEKSVSIYTPVVSLSPHKNLPVDMQLKKEKKCVKLIGVPADAEALSERSGNTPNSPRLAAESKLQTEVKEGKETSSKLEKETCKKLHPILYVSSKSTPETQCPQQ
notes: source: E. coli BL21 CodonPlus, purified (HisTrap, Resource Q, Superdex 200); not shown: mCherry, N-terminal, kept
As for B4, the “stoichiometry N” value in data set [2] turned out to be 2.
